Assay [1] has as its target T1, 3T3 cells that over-express human cMet (Homo sapiens, UniProt P08581).
T1 construct: expressed in transfected cells; host or cells: 3T3 cells
Put plainly: Whole cell ELISA of peptide-displaying phage. In kind it is cell-based. To be noted: phage isolate; 3T3 cells expressing human cMet vs. non-expressing 3T3 cells. The protocol:
Whole cell ELISAs were performed using 3T3 cells that over-express human cMet. […] Briefly, 96-well plates were seeded with 10^5 cells per well. The plates were centrifuged for 5 minutes at 1600 rpm to pellet the cells. The resulting cell layer was fixed with 0.1% (v/v) glutaraldehyde for 12 minutes at 37 C. […] Peptide-displaying phage also were blocked in the above solution for 1 hour at 37 C. 100 μL of blocked phage was then added to each well and the plates were incubated for 1 hour at room temperature. The plates were washed with PBST. cMet-binding peptide-displaying phage were detected using an HRP-conjugated anti-M13 antibody.

Another assay concerns the target cMet-Fc fusion protein (Homo sapiens, UniProt P08581). Description: Protein phage ELISA: peptide-displaying phage binding to soluble cMet-Fc versus TRAIL-Fc. Conditions: phage isolate; cMet-Fc vs. TRAIL-Fc. The protocol: Protein phage ELISAs using peptide-displaying phage isolates from the various selection campaigns were performed to determine specificity of the peptides for cMet versus an unrelated Fc-fusion protein (TRAIL-Fc). Briefly, 384-well plates were coated overnight at 4 C with 0.5 μg/mL of cMet-Fc fusion protein or TRAIL-Fc fusion protein (background). The plates were blocked for 2 hours 37C with 3% (w/v) BSA in PBS containing 0.05% (v/v) Tween-20 (PBST). The plates were washed with PBST and 100 μL of peptide-displaying phage were added to each well. The plates were incubated for 2 hours at room temperature and washed with PBST. cMet-binding peptide-displaying phage were detected using an HRP-conjugated anti-M13 antibody.
For orientation: ELISA stands for enzyme-linked immunosorbent assay.

Chain of cMet-Fc fusion protein (P08581 25-307 limits assumed): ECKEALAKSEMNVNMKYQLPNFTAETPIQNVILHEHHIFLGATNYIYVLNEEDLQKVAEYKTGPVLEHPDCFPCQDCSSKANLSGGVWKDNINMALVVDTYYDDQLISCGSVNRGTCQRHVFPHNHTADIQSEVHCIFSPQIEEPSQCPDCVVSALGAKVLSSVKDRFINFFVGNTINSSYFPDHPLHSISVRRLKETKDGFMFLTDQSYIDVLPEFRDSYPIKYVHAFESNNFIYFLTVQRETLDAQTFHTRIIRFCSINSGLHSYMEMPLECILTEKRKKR
Chain of cMet-Fc fusion protein (P08581 with tags, fused parts or gaps limits assumed): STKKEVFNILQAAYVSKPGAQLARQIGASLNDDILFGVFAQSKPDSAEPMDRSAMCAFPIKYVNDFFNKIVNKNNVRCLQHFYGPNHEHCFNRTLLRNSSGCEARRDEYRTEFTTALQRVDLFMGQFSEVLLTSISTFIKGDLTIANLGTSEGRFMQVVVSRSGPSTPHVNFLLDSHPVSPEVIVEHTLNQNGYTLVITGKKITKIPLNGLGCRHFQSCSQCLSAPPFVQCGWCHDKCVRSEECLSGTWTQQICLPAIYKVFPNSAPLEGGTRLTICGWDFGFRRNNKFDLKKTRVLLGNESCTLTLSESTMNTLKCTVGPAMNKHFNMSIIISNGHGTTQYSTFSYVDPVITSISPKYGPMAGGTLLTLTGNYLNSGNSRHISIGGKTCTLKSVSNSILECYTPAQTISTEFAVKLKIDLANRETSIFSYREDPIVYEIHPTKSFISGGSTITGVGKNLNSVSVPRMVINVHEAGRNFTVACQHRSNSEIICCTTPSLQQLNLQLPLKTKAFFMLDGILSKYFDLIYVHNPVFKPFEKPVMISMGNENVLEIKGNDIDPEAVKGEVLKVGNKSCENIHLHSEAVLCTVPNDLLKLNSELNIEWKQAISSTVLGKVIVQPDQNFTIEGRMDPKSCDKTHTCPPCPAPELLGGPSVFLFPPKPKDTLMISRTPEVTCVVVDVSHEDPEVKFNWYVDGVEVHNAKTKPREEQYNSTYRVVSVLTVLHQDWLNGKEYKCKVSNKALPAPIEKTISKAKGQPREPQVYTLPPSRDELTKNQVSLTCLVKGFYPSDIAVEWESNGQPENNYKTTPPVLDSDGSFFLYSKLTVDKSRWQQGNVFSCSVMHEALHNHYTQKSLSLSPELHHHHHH
T1 sequence (P08581 25-1390): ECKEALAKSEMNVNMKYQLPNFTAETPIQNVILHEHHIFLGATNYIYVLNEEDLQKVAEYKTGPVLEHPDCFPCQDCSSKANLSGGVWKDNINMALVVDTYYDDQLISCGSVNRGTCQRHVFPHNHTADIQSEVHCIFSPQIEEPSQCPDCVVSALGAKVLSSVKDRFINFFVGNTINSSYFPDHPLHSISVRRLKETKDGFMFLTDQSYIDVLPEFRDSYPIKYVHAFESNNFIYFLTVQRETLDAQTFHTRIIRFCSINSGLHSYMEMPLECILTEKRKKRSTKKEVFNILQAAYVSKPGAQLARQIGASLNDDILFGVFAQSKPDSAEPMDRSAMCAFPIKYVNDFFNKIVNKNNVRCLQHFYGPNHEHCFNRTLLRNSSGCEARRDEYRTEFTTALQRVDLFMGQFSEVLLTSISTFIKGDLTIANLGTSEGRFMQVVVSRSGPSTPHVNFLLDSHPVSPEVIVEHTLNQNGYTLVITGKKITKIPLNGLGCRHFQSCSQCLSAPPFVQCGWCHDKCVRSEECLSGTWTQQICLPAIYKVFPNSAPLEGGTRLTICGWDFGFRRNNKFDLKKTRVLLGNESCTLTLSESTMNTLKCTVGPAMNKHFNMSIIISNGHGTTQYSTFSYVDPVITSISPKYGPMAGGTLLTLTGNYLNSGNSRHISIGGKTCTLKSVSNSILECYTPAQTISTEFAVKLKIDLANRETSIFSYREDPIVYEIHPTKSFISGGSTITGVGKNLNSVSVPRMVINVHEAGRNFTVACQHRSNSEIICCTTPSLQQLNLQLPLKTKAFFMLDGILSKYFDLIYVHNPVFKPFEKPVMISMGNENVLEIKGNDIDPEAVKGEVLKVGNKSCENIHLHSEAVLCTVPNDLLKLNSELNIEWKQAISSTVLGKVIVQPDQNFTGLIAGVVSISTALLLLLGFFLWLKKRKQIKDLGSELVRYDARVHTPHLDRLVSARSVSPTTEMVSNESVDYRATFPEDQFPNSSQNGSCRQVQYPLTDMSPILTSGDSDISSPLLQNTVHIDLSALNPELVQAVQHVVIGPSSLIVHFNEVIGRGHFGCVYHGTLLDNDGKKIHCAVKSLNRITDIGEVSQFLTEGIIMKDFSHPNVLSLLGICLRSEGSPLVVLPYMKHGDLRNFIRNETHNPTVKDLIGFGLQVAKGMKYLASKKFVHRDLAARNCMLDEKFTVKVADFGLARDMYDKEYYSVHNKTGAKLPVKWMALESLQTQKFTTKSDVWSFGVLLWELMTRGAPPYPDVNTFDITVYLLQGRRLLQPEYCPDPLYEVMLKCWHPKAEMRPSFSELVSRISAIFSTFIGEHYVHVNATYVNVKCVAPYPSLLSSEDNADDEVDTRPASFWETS

As for “AGPLFCFEWPSLCHWGGT (Synthetically generated cMet-binding peptide sequence) [SEQ ID NO: 033]”, the “WC ELISA” value in assay [1] came out at 1.43 fold over background. Also, the “Protein ELISA” value with cMet-Fc fusion protein came to 3.8 fold over background.

Consider “GDSYNCSWDSKTFEVTCLYADP (Synthetically generated cMet-binding peptide sequence) [SEQ ID NO: 393]”, for which, in assay [1], the “WC ELISA” value stood at 1.20 fold over background. The “Protein ELISA” value with cMet-Fc fusion protein amounted to 8.4 fold over background.

For “AQFPLEFDVPNFSYHWLVSFNP (Synthetically generated cMet-binding peptide sequence) [SEQ ID NO: 460]”, in assay [1], the “WC ELISA” value is given as 1.27 fold over background. The “Protein ELISA” value with cMet-Fc fusion protein was 5.6 fold over background.

Take `CC[C@H](C)[C@H](NC(=O)[C@H](CO)NC(=O)CNC(=O)[C@H](C)NC(C)=O)C(=O)N[C@@H](CCC(N)=O)C(=O)N[C@H]1CSSC[C@@H](C(=O)N[C@H](C(=O)N2CCC[C@H]2C(=O)N[C@@H](Cc2ccc(O)cc2)C(=O)NCC(=O)N[C@H](C(=O)NCC(=O)NCC(=O)NCC(=O)N[C@@H](CCCCNC(=O)c2ccc3c(c2)C(=O)OC32c3ccc(O)cc3Oc3cc(O)ccc32)C(N)=O)[C@@H](C)O)[C@@H](C)O)NC(=O)[C@H](CCC(=O)O)NC(=O)[C@H](Cc2ccccc2)NC(=O)[C@H](CO)NC(=O)[C@@H]2CCCN2C(=O)[C@@H]2CCCN2C(=O)CNC(=O)[C@H](C(C)C)NC1=O` [SEQ ID NO: 074]: the “WC ELISA” value in assay [1] came to 1.37 fold over background. The “Protein ELISA” value on cMet-Fc fusion protein stood at 6.7 fold over background.

“AGYWHCKGPPHFACEFHGT (Synthetically generated cMet-binding peptide sequence) [SEQ ID NO: 077]”: the “WC ELISA” value in assay [1] stood at 1.40 fold over background. Besides, the “Protein ELISA” value with cMet-Fc fusion protein is on record as 5.5 fold over background.

With “AGNWICNLSEMRCYPKGT (Synthetically generated cMet-binding peptide sequence) [SEQ ID NO: 013]”, the “WC ELISA” value in assay [1] was found to be 1.40 fold over background. Moreover, the “Protein ELISA” value with cMet-Fc fusion protein is given as 3.9 fold over background.

On to “GDPDECQLNRETFEVWCPWHDP (Synthetically generated cMet-binding peptide sequence) [SEQ ID NO: 401]”, for which the “WC ELISA” value in assay [1] was 1.23 fold over background. For the same compound, the “Protein ELISA” value with cMet-Fc fusion protein came to 4.3 fold over background.

As to “AQMGHHWDVQWDYKLFHVARGD (Synthetically generated cMet-binding peptide sequence) [SEQ ID NO: 473]”, the “WC ELISA” value in assay [1] turned out to be 1.23 fold over background. In addition, the “Protein ELISA” value in the assay with cMet-Fc fusion protein is listed as 3.7 fold over background.

For the compound `CC[C@H](C)[C@H](NC(=O)[C@H](C)NC(=O)[C@@H](NC(=O)[C@H](Cc1ccccc1)NC(=O)[C@H](Cc1ccccc1)NC(=O)[C@H](CC(N)=O)NC(=O)[C@H](CCCNC(=N)N)NC(=O)[C@@H](NC(=O)[C@H](Cc1c[nH]cn1)NC(=O)[C@H](CC(=O)O)NC(=O)[C@@H](NC(=O)[C@H](Cc1c[nH]c2ccccc12)NC(=O)[C@H](CC(C)C)NC(=O)[C@H](CCC(=O)O)NC(=O)[C@H](Cc1ccccc1)NC(=O)CNC(=O)[C@H](CCC(N)=O)NC(=O)[C@H](C)NC(C)=O)C(C)C)[C@@H](C)O)[C@@H](C)CC)C(=O)N[C@@H](CO)C(=O)N1CCC[C@H]1C(=O)NCC(=O)NCC(=O)NCC(=O)N[C@@H](CCCCNC(=O)c1ccc2c(c1)C(=O)OC21c2ccc(O)cc2Oc2cc(O)ccc21)C(N)=O` [SEQ ID NO: 469], the “WC ELISA” value in assay [1] stood at 1.20 fold over background. Also, at cMet-Fc fusion protein, the “Protein ELISA” value was 3.8 fold over background.

Regarding `CC[C@H](C)[C@@H]1NC(=O)[C@@H](NC(=O)[C@H](Cc2c[nH]cn2)NC(=O)[C@@H](NC(=O)[C@H](Cc2c[nH]c3ccccc23)NC(=O)CNC(=O)[C@H](C)NC(C)=O)[C@@H](C)O)CSSC[C@@H](C(=O)N[C@H](C(=O)N2CCC[C@H]2C(=O)N[C@@H](CCSC)C(=O)NCC(=O)N[C@H](C(=O)NCC(=O)NCC(=O)NCC(=O)N[C@@H](CCCCNC(=O)c2ccc3c(c2)C(=O)OC32c3ccc(O)cc3Oc3cc(O)ccc32)C(N)=O)[C@@H](C)O)[C@@H](C)CC)NC(=O)[C@H](CCC(=O)O)NC(=O)[C@H](Cc2ccccc2)NC(=O)[C@H]([C@@H](C)O)NC(=O)[C@@H]2CCCN2C(=O)[C@@H]2CCCN2C(=O)CNC1=O` [SEQ ID NO: 052], the “WC ELISA” value in assay [1] is 1.30 fold over background. Also, the “Protein ELISA” value at cMet-Fc fusion protein worked out at 8.0 fold over background.

On to “AGHTICQHKALGCPANGT (Synthetically generated cMet-binding peptide sequence) [SEQ ID NO: 041]”, for which, in assay [1], the “WC ELISA” value turned out to be 1.27 fold over background. Further, in the assay with cMet-Fc fusion protein, the “Protein ELISA” value worked out at 3.1 fold over background.

As to “AGQFYCSGPPTFQCIMIGT (Synthetically generated cMet-binding peptide sequence) [SEQ ID NO: 089]”, the “WC ELISA” value in assay [1] was 1.23 fold over background. In addition, the “Protein ELISA” value in the assay with cMet-Fc fusion protein stood at 12.4 fold over background.

For `CC(=O)N[C@@H](C)C(=O)NCC(=O)N[C@@H](CCC(=O)O)C(=O)N[C@@H](Cc1c[nH]c2ccccc12)C(=O)N[C@@H](Cc1c[nH]c2ccccc12)C(=O)N[C@H]1CSSC[C@@H](C(=O)N[C@@H](Cc2ccc(O)cc2)C(=O)N[C@@H](Cc2c[nH]c3ccccc23)C(=O)N[C@H](C(=O)NCC(=O)N[C@H](C(=O)NCC(=O)NCC(=O)NCC(=O)N[C@@H](CCCCNC(=O)c2ccc3c(c2)C(=O)OC32c3ccc(O)cc3Oc3cc(O)ccc32)C(N)=O)[C@@H](C)O)[C@@H](C)O)NC(=O)[C@H](CC(C)C)NC(=O)[C@H](Cc2ccccc2)NC(=O)[C@H](CCC(=O)O)NC(=O)[C@@H]2CCCN2C(=O)[C@@H]2CCCN2C(=O)CNC(=O)[C@H](Cc2c[nH]cn2)NC1=O` [SEQ ID NO: 072], the “WC ELISA” value in assay [1] is recorded as 1.47 fold over background. Besides, the “Protein ELISA” value on cMet-Fc fusion protein came out at 12.6 fold over background.

Regarding “AGVWICRVWDDECFFQGT (Synthetically generated cMet-binding peptide sequence) [SEQ ID NO: 020]”, in assay [1], the “WC ELISA” value was found to be 1.37 fold over background. In the assay with cMet-Fc fusion protein, the “Protein ELISA” value stood at 3.7 fold over background.

For the compound “GSGDPCSPGPSINGHCSVMAP (Synthetically generated cMet-binding peptide sequence) [SEQ ID NO: 382]”, the “WC ELISA” value in assay [1] is 1.33 fold over background. In addition, in the assay with cMet-Fc fusion protein, the “Protein ELISA” value is on record as 4.5 fold over background.

With “AGWWSCQWELNVCIWQGT (Synthetically generated cMet-binding peptide sequence) [SEQ ID NO: 016]”, in assay [1], the “WC ELISA” value was 1.33 fold over background. The “Protein ELISA” value with cMet-Fc fusion protein worked out at 4.1 fold over background.

Turning to “AQEWQTWTWNMIEVISENKTP (Synthetically generated cMet-binding peptide sequence) [SEQ ID NO: 468]”, in assay [1], the “WC ELISA” value is 1.40 fold over background. Besides, the “Protein ELISA” value with cMet-Fc fusion protein worked out at 3.8 fold over background.

In the case of “AGFWDCGWMMQDCHMHGT (Synthetically generated cMet-binding peptide sequence) [SEQ ID NO: 045]”, in assay [1], the “WC ELISA” value worked out at 1.33 fold over background. The “Protein ELISA” value with cMet-Fc fusion protein turned out to be 3.9 fold over background.

As to “GSQQICDRKEYRFQACLSDAP (Synthetically generated cMet-binding peptide sequence) [SEQ ID NO: 371]”, the “WC ELISA” value in assay [1] was found to be 1.40 fold over background. In addition, the “Protein ELISA” value with cMet-Fc fusion protein was 3.4 fold over background.

For the compound “AGNYFCAGSPSFSCYFMGT (Synthetically generated cMet-binding peptide sequence) [SEQ ID NO: 054]”, the “WC ELISA” value in assay [1] came out at 1.33 fold over background. The “Protein ELISA” value with cMet-Fc fusion protein was 13.4 fold over background.

Turning to “AQGIAWQLEWSYMPQSPPSFDR (Synthetically generated cMet-binding peptide sequence) [SEQ ID NO: 495]”, the “WC ELISA” value in assay [1] worked out at 1.17 fold over background. Moreover, the “Protein ELISA” value with cMet-Fc fusion protein was determined as 4.5 fold over background.

“AGTMYCLGPPTFICQQYGT (Synthetically generated cMet-binding peptide sequence) [SEQ ID NO: 084]”: the “WC ELISA” value in assay [1] came out at 1.23 fold over background. Moreover, in the assay with cMet-Fc fusion protein, the “Protein ELISA” value is on record as 13.0 fold over background.

For the compound “AQLFQYLWHDDPQGAFFQLSMW (Synthetically generated cMet-binding peptide sequence) [SEQ ID NO: 483]”, in assay [1], the “WC ELISA” value is 1.23 fold over background. In addition, the “Protein ELISA” value in the assay with cMet-Fc fusion protein is listed as 3.1 fold over background.

These data come from patent publication US9845340B2, “Peptides that specifically bind HGF receptor (cMet) and uses thereof” (Dyax Corp., priority 2003, dated 2017).
